T1: Slr0701 (6x-His, MerR family regulator) (Synechocystis sp. PCC6803, UniProt Q55963 1-137)
T1 sequence: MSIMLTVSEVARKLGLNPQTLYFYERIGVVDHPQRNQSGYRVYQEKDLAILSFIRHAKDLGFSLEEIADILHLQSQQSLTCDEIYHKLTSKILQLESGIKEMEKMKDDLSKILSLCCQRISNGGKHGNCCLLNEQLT


Key:
[1] = molecular target: the molecule itself; assay: SDS-PAGE without 2-mercaptoethanol; purified 6x-His-Slr0701 on 15% SDS-PAGE under semi-denaturing condition (without 2-mercaptoethanol), compared with a sample with 2-mercaptoethanol; monomer to dimer
[2] = molecular target: T1, Slr0701 (6x-His, MerR family regulator); assay: SPR; 62 uM HgCl2; EMSA: 20 ul, 80 ng DNA, 0.5 or 1 ug protein, binding buffer not specified, 30 min at 25 C, 6% native PAGE in 0.5x TBE at 4 C, SYBR Green; SPR: Biacore T200, SA; settings: protein: recombinant; tags: 6xHis (text says C-terminal; pET-28a NheI/EcoRI clone, also written 6x-His-Slr0701); chain copies: 2; label: 5' biotin on strand 1; blunt

Binder | stoichiometry N [1] | binding signal [2]
6x-His-Slr0701 protein (putative MerR family transcriptional regulator Slr0701) (natural protein, Synechocystis sp. PCC6803, UniProt Q55963 1-137, looked up, Slr0701, putative MerR family transcriptional regulator of Synechocystis sp; PCC6803; the slr0701 ORF amplified with primers from the start codon (GTG) to the stop codon and cloned into pET-28a(+) at NheI and EcoRI; not shown: His6, C-terminal, kept) MSIMLTVSEVARKLGLNPQTLYFYERIGVVDHPQRNQSGYRVYQEKDLAILSFIRHAKDLGFSLEEIADILHLQSQQSLTCDEIYHKLTSKILQLESGIKEMEKMKDDLSKILSLCCQRISNGGKHGNCCLLNEQLT | 2 | 
Pslr0701 50-bp oligonucleotide duplex (dsDNA) DNA 1: TACTACAATATATTCCCTATACTTAGGTATAAGGTTGTAGGTTGATATAG DNA 2: CTATATCAACCTACAACCTTATACCTAAGTATAGGGAATATATTGTAGTA |  | ~1000 fold higher affinity with HgCl2 than without

— publication PMC6741143, “A putative merR family transcription factor Slr0701 regulates mercury inducible expression of MerA in the cyanobacterium Synechocystis sp. PCC6803” (MicrobiologyOpen, 2019)
